Measurements as given in patent US20240052034A1 (PANDION OPERATIONS, published 2024).
Where “and” joins values, the source holds several entries; their conditions need not be identical. Equal values may be shown once.

T1: mouse PD-1 (mouse, UniProt Q02242 25-167, limits assumed)
T1 sequence (looked up): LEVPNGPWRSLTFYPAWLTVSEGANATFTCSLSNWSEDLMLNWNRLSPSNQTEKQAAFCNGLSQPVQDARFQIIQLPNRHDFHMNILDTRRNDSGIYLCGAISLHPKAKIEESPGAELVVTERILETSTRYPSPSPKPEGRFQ

T2: Fc-tagged mouse PD-1 (mouse, UniProt Q02242 25-167, limits assumed)
T2 construct: Printed 'Fe-tagged', read as Fc-tagged; also called Fe-tagged mouse PD-1 (so in the source); not shown: Fc tag
T2 sequence (looked up): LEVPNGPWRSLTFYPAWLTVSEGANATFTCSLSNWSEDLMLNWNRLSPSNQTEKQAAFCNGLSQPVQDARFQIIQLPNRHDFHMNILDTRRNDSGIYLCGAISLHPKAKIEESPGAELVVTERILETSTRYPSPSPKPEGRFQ


How the values were obtained:
[1] = molecular target: PD-1 on PD-1 reporter Jurkat cells (UniProt Q15116 25-288, limits assumed); experiment: cell-based or functional assay
PD-1 on PD-1 reporter Jurkat cells, sequence (Q15116 25-288 limits assumed): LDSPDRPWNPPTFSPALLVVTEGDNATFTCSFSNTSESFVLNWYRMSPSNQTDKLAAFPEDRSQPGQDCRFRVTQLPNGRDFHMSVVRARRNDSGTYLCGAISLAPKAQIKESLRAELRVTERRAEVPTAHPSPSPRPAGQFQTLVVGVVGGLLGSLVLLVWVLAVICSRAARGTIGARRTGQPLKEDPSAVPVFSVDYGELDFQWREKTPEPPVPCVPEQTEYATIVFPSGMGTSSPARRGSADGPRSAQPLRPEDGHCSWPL

mouse PD-1 = molecular target: T1, mouse PD-1; experiment: BLI (biosensor): test article on anti-human IgG Fc tips, PD-1 in solution
Method: (§1) Anti-human IgG Fc (AHC) biosensors were equilibrated in assay buffer for 20 minutes. Test articles were diluted to 10 μg/mL in assay buffer (lx PBS, 1% BSA, 0.05% Tween20). A seven-point serial dilution of human PD-1 was prepared in assay buffer, starting at 1000 nM down to 15.625 nM (human PD-1) or 2000 nM down to 31.25 nM (mouse PD-1). Test articles were loaded on tips for 180 s followed by a 180 s association phase with PD-1 and 180 s dissociation phase in assay buffer.
as §1, with “article was” for “articles were”, “(human and cyno” for “(human”

human PD-1 = molecular target: T3, human PD-1 (human, UniProt Q15116 25-167, limits assumed); experiment: as above
T3 construct: also called huPD-1
T3 sequence (Q15116 25-167 limits assumed): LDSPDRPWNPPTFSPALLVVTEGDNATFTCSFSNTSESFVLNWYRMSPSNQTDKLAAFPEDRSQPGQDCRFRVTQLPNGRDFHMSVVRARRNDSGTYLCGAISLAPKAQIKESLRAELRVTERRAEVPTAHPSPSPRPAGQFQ
Method: as §1
as §1, with “article was” for “articles were”, “(human and cyno” for “(human”

cynomolgus PD-1 = molecular target: T4, cynomolgus PD-1 (cynomolgus, UniProt B0LAJ3 25-170); experiment: as above
T4 construct: also called cyno PD-1
T4 sequence (B0LAJ3 entry or part of it limits assumed): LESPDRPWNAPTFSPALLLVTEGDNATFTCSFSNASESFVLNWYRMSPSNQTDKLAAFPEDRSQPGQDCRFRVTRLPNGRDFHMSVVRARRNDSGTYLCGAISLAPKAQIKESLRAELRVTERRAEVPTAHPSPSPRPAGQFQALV
Method: as §1
as §1, with “article was” for “articles were”, “(human and cyno” for “(human”

Fc-tagged mouse PD-1 = molecular target: T2, Fc-tagged mouse PD-1; experiment: BLI (biosensor): Fc-tagged PD-1 on anti-human IgG Fc tips, fragment in solution
Method: (§2) Anti-human IgG Fc (AHC) or Streptavidin (SA) biosensor were equilibrated in assay buffer for 20 minutes. Fe-tagged mouse and cynomolgus PD-1 was diluted to 5 μg/mL and biotinylated huPD-1 article was diluted to 0.5 μg/mL in assay buffer (1×PBS, 1% BSA, 0.05% Tween20). […] PD-1 was loaded on tips for 180 s followed by a 180 s association phase with PD-1 and 180 s dissociation phase in assay buffer.

[2] = molecular target: T5, Fc-tagged cynomolgus PD-1 (cynomolgus, UniProt B0LAJ3 25-170); experiment: as above
T5 construct: Printed 'Fe-tagged', read as Fc-tagged; also called cyno PD-1; Fe-tagged cynomolgus PD-1 (so in the source)
T5 sequence (B0LAJ3 entry or part of it limits assumed): as above
Method: as §2

biotinylated huPD-1 = molecular target: T6, biotinylated huPD-1 (human, UniProt Q15116 25-167, limits assumed, biotinylated (site not stated)); experiment: BLI (biosensor): biotinylated huPD-1 on streptavidin tips, fragment in solution
T6 construct: also called human PD-1
T6 sequence (Q15116 25-167 limits assumed): as the sequence (Q15116 25-167 limits assumed) above
Method: as §2

Binder	EC50 of SHP-2 recruitment, PD-1 reporter Jurkat cells, Ig-tethered test article on anti-human IgG coated plates [1] [nM]	EC50 of SHP-2 recruitment, PD-1 reporter Jurkat cells, soluble test article [1] [nM]	Kd (mouse PD-1) [nM]	koff (mouse PD-1)	kon (mouse PD-1)	Kd (Fc-tagged mouse PD-1) [nM]	Kd [2] [nM]	Kd (biotinylated huPD-1) [nM]	also measured
PD1AB38 (bispecific antibody, human IgG1, kappa) heavy: EVQLVQSGAEVKKPGASVKVSCKASGYSFTTYYMHWVRQAPGQGLEWMGIINPSGGSTSYAQKFQGRVTMTRDTSTSTVYMELSSLRSEDTAVYYCASGWVYWGQGTLVTVSSASTKGPSVFPLAPSSKSTSGGTAALGCLVKDYFPEPVTVSWNSGALTSGVHTFPAVLQSSGLYSLSSVVTVPSSSLGTQTYICNVNHKPSNTKVDKKVEPKSCDKTHTCPPCPAPEAAGAPSVFLFPPKPKDTLMISRTPEVTCVVVDVSHEDPEVKFNWYVDGVEVHNAKTKPREEQYNSTYRVVSVLTVLHQDWLNGKEYKCKVSNKALPAPIEKTISKAKGQPREPQVYTLPPSREEMTKNQVSLTCLVKGFYPSDIAVEWESNGQPENNYKTTPPVLDSDGSFFLYSKLTVDKSRWQQGNVFSCSVMHEALHNHYTQKSLSLSPGGGGGSGGGGSGGGGSEVQLLESGGGLVQPGGSLRLSCAASGFTFSSYDMSWVRQAPGKGLEWVSGITISGGSTYYADSVKGRFTISRDNSKNTLYLQMNSLRAEDTAVYYCARGRGGSGWLDYWGQGTTVTVSSGGGGSGGGGSGGGGSGGGGSDIVMTQSPDSLAVSLGERATINCKSSQSVLYSPNNKNYLAWYQQKPGQPPKLLIYWASTRESGVPDRFSGSGSGTDFTLTISSLQAEDVAVYYCQQYYTTPPTFGQGTRLEIK light: not shown	20.9	0.302	979	0.0229 s⁻¹	23400 M⁻¹ s⁻¹				
PD1AB37 (bispecific antibody, human IgG1, kappa) heavy: EVQLVQSGAEVKKPGASVKVSCKASGYSFTSYYMHWVRQAPGQGLEWMGIINPSGGSTSYAQKFQGRVTMTRDTSTSTVYMELSSLRSEDTAVYYCASGWVYWGQGTLVTVSSASTKGPSVFPLAPSSKSTSGGTAALGCLVKDYFPEPVTVSWNSGALTSGVHTFPAVLQSSGLYSLSSVVTVPSSSLGTQTYICNVNHKPSNTKVDKKVEPKSCDKTHTCPPCPAPEAAGAPSVFLFPPKPKDTLMISRTPEVTCVVVDVSHEDPEVKFNWYVDGVEVHNAKTKPREEQYNSTYRVVSVLTVLHQDWLNGKEYKCKVSNKALPAPIEKTISKAKGQPREPQVYTLPPSREEMTKNQVSLTCLVKGFYPSDIAVEWESNGQPENNYKTTPPVLDSDGSFFLYSKLTVDKSRWQQGNVFSCSVMHEALHNHYTQKSLSLSPGGGGGSGGGGSGGGGSEVQLLESGGGLVQPGGSLRLSCAASGFTFSSYDMSWVRQAPGKGLEWVSGITISGGSTYYADSVKGRFTISRDNSKNTLYLQMNSLRAEDTAVYYCARGRGGSGWLDYWGQGTTVTVSSGGGGSGGGGSGGGGSGGGGSDIVMTQSPDSLAVSLGERATINCKSSQSVLYSPNNKNYLAWYQQKPGQPPKLLIYWASTRESGVPDRFSGSGSGTDFTLTISSLQAEDVAVYYCQQYYTTPPTFGQGTRLEIK light: not shown	24.5	0.37	4860	0.0245 s⁻¹	5050 M⁻¹ s⁻¹				Kd (human PD-1): 18.3 nM; koff (human PD-1): 0.000824 s⁻¹; kon (human PD-1): 45000 M⁻¹ s⁻¹; Kd (cynomolgus PD-1): 15.4 nM; koff (cynomolgus PD-1): 0.000566 s⁻¹; kon (cynomolgus PD-1): 36800 M⁻¹ s⁻¹
PD1AB43 (bispecific antibody, human IgG1, kappa) heavy: QVQLVQSGAEVKKPGASVKVSCKASGYSFTTYYMHWVRQAPGQGLEWMGIIAPSGGSTSYAQKFQGRVTMTRDTSTSTVYMELSSLRSEDTAVYYCASGWVYWGQGTLVTVSSASTKGPSVFPLAPSSKSTSGGTAALGCLVKDYFPEPVTVSWNSGALTSGVHTFPAVLQSSGLYSLSSVVTVPSSSLGTQTYICNVNHKPSNTKVDKKVEPKSCDKTHTCPPCPAPEAAGAPSVFLFPPKPKDTLMISRTPEVTCVVVDVSHEDPEVKFNWYVDGVEVHNAKTKPREEQYNSTYRVVSVLTVLHQDWLNGKEYKCKVSNKALPAPIEKTISKAKGQPREPQVYTLPPSREEMTKNQVSLTCLVKGFYPSDIAVEWESNGQPENNYKTTPPVLDSDGSFFLYSKLTVDKSRWQQGNVFSCSVMHEALHNHYTQKSLSLSPGGGGGSGGGGSGGGGSEVQLLESGGGLVQPGGSLRLSCAASGFTFSSYDMSWVRQAPGKGLEWVSGITISGGSTYYADSVKGRFTISRDNSKNTLYLQMNSLRAEDTAVYYCARGRGGSGWLDYWGQGTTVTVSSGGGGSGGGGSGGGGSGGGGSDIVMTQSPDSLAVSLGERATINCKSSQSVLYSPNNKNYLAWYQQKPGQPPKLLIYWASTRESGVPDRFSGSGSGTDFTLTISSLQAEDVAVYYCQQYYTTPPTFGQGTRLEIK light: not shown	8.51	0.574	1430	0.0404 s⁻¹	28200 M⁻¹ s⁻¹				response (mouse PD-1): 0.0546
PD1AB53 (bispecific antibody, human IgG1, kappa) heavy: EVQLLESGGGLVQPGGSLRLSCAASGFTFSSYDMSWVRQAPGKGLEWVSGITISGGSTYYADSVKGRFTISRDNSKNTLYLQMNSLRAEDTAVYYCARGRGGSGWLDYWGQGTTVTVSSASTKGPSVFPLAPSSKSTSGGTAALGCLVKDYFPEPVTVSWNSGALTSGVHTFPAVLQSSGLYSLSSVVTVPSSSLGTQTYICNVNHKPSNTKVDKKVEPKSCDKTHTCPPCPAPEAAGAPSVFLFPPKPKDTLMISRTPEVTCVVVDVSHEDPEVKFNWYVDGVEVHNAKTKPREEQYNSTYRVVSVLTVLHQDWLNGKEYKCKVSNKALPAPIEKTISKAKGQPREPQVYTLPPSREEMTKNQVSLTCLVKGFYPSDIAVEWESNGQPENNYKTTPPVLDSDGSFFLYSKLTVDKSRWQQGNVFSCSVMHEALHNHYTQKSLSLSPGGGGSEGGGSEGGGSEDIQMTQSPSSLSASVGDRVTITCQASRDIKNYLAWYQQKPGKAPKLLIYAASSLQSGVPSRFSGSGSGTDFTLTISSLQPEDFATYYCQQSYSTPPTFGCGTKVDIKGGGGSGGGGSGGGGSGGGGSEVQLVQSGAEVKKPGASVKVSCKASGYSFTTYYMHWVRQAPGQCLEWMGIINPSGGSTSYAQKFQGRVTMTRDTSTSTVYMELSSLRSEDTAVYYCASGWVYWGQGTLVTVSS light: not shown	4.83	1.21		0.0228 s⁻¹ and 0.0657 s⁻¹	5940 M⁻¹ s⁻¹ and 2670 M⁻¹ s⁻¹				kon (human PD-1): 67600 M⁻¹ s⁻¹ and 41300 M⁻¹ s⁻¹; response (human PD-1): 0.227; response (mouse PD-1): 0.0367; Kd (cynomolgus PD-1): 13.5 nM; koff (cynomolgus PD-1): 0.000531 s⁻¹; kon (cynomolgus PD-1): 39400 M⁻¹ s⁻¹
Fab moiety of the PD1AB37 (Fab, V domains shown, also called PD1AB37 Fab) VH: EVQLVQSGAEVKKPGASVKVSCKASGYSFTSYYMHWVRQAPGQGLEWMGIINPSGGSTSYAQKFQGRVTMTRDTSTSTVYMELSSLRSEDTAVYYCASGWVYWGQGTLVTVSS VL: not shown						1350	497	330	
Fab moiety of the PD1AB38 (Fab, V domains shown, also called PD1AB38 Fab) VH: EVQLVQSGAEVKKPGASVKVSCKASGYSFTTYYMHWVRQAPGQGLEWMGIINPSGGSTSYAQKFQGRVTMTRDTSTSTVYMELSSLRSEDTAVYYCASGWVYWGQGTLVTVSS VL: DIQMTQSPSSLSASVGDRVTITCQASRDIKNYLAWYQQKPGKAPKLLIYAASSLQSGVPSRFSGSGSGTDFTLTISSLQPEDFATYYCQQSYSTPPTFGPGTKVDIK						176	172	140	
scFv moiety of the PD1AB53 (scFv, also called PD1AB53 scFv) scFv: DIQMTQSPSSLSASVGDRVTITCQASRDIKNYLAWYQQKPGKAPKLLIYAASSLQSGVPSRFSGSGSGTDFTLTISSLQPEDFATYYCQQSYSTPPTFGCGTKVDIKGGGGSGGGGSGGGGSGGGGSEVQLVQSGAEVKKPGASVKVSCKASGYSFTTYYMHWVRQAPGQCLEWMGIINPSGGSTSYAQKFQGRVTMTRDTSTSTVYMELSSLRSEDTAVYYCASGWVYWGQGTLVTVSS						1060	1170	1350	
scFv moiety of the PD1AB38 (scFv, also called PD1AB38 scFv) scFv: EVQLLESGGGLVQPGGSLRLSCAASGFTFSSYDMSWVRQAPGKGLEWVSGITISGGSTYYADSVKGRFTISRDNSKNTLYLQMNSLRAEDTAVYYCARGRGGSGWLDYWGQGTTVTVSSGGGGSGGGGSGGGGSGGGGSDIVMTQSPDSLAVSLGERATINCKSSQSVLYSPNNKNYLAWYQQKPGQPPKLLIYWASTRESGVPDRFSGSGSGTDFTLTISSLQAEDVAVYYCQQYYTTPPTFGQGTRLEIK							58.6		binding result (Fc-tagged mouse PD-1): no binding
